The values below come from publication PMC12014896 (2025).

First the molecules themselves.
B1: COVIC-290 (antibody, V domains shown)
VH: QMQLVQSGPEVKKPGTSVKVSCKASGFTFSSSAVQWVRQARGQHLEWIGWIVVGSGNTNYAQKFQERVTLTRDMSTRTAYMELSSLRSEDTAVYYCAAPNCNSTTCHDGFDIWGQGTVVTVSS
VL: EIVLTQSPGTLSLSPGERATLSCRASQSVRSSYLGWYQQKPGQAPRLLIYGASSRATGIPDRFSGSGSGTDFTLTISRLESEDFAVYYCQQYDNSPWTFGQGTKVEIK
B2: COVIC-158 (antibody, V domains shown)
VH: EVQLVESGGGLIQPGGSLRLSCAASGLTVSSNYMNWVRQAPGKKLEWVSVIYSGGSTFYADSVRGRFTISRDNSKNTLFLQMNSLRAEDSAVYYCARDLGPYGVDVWGQGTTVTVSS
VL: DIQLTQSPSFLSASVGDRVTITCWASQGISSYLAWYQQKPGKAPKLLIYAASTLQSGVPSRFSGSGSGTEFTLTISSLQPEDFATYYCQQLNSYPLTFGQGTRLEIKR
B3: COVIC-297 (antibody, V domains shown)
VH: EVLLVESGGGLIQPGGSLRLSCAASGLTVSSNYMSWVRQAPGKGLEWVSVIYSGGSTFYADSVKGRFTISRDNSKNTLYLQMNSLRAEDTAVYYCARDLVTWGLDYWGQGTLVTVSS
VL: AIQLTQSPSSLSASVGDRVTITCRASQGISSYLAWYQQKPGKAPKLLIYAASTLQSGVPSRFSGSGSGTDFTLTISSLQPEDFATYYCQLLNTDPITFGQGTRLEIK
B4: COVIC-172 (antibody, V domains shown)
VH: QVQLVESGGDVVQPGRSLRLSCAASGFTFSRYGMHWVRQAPGKGLEWVAVISYDGSDKYYADSVKGRFTISRDNSKNTLYLQMNSLRAEDTAVYYCAKQLPLYYYYYGMDVWGQGTTVTVSS
VL: AIQLTQSPSSLSASVGDRVTITCRASQGISSALAWYQQKPGKAPNLLIYDASSLESGVPSRFSGSGSGTDFTLTISSLQPEDFATYYCQQFNIYPHTFGPGTKVDIKR
B5: COVIC-391 (antibody, V domains shown)
VH: QVQLVQSGAEVKKPGSSVKVSCKASGGTFSSYVINWVRQAPGQGLEWMGGIIPTLGTTNYAQKFQGRVTITADKSTSTAYMELSSLRSEDTAVYYCARAGGYSGSGSNYYMDVWGKGTTVTVSS
VL: QSVLTQPPSVSGAPGQRVTISCTGSSSNIGAGYDVHWYQQLPGTAPKLLIYANNNRPSGVPDRFSGSNSGTSASLAITGLQAEDEADYYCQSYDSSLSDSVFGGGTKLTVL
B6: COVIC-31 (antibody, V domains shown)
VH: EVQLVESGVEVKKPGASVKVSCKAFGYTFTGQDMHWVRQAPGQGLEWMGWINPSSAGTNYAQKFQGRVTMTRDTSISTAYMELSRLRSDDTSVYYCRKMLTIFGKVNQTMLLISGAKGQWSPSLQWGQGTMVTVSS
VL: DIVMTQTPLSLSVTPGQPASISCKSGQSLLHSDGKTYLYWYLQKPGQPPQLLIYEVSNRFSGVPDRFSGSGSGTDFTLKISRVEAEDVGVYYCMQSIQLPPTFGQGTKVEIK
B7: COVIC-295 (antibody, V domains shown)
VH: QVQLVQSGAEVKKPGSSVKVSCKASGGTFSSYSFIWVRQAPGQGLEWMGRIIPILGIANYAQKFQGRVTITADKSTTTAYMELSSLRSEDTAVYYCARGTEYGDYDVSHDWGQGTLVTVSS
VL: not shown
B8: COVIC-186 (antibody, V domains shown)
VH: QVQLLQSGAEVKKPGASVKVSCKASGYSFTSYYMHWVRQAPGQGLEWMGIINPSGGGTTYAQKFQGRVTMTRDTSTSTVYMELSSLRSEDTAVYYCARPGGGSYQEFDYWGQGTLVTVSS
VL: DIQMTQSPSSLSASVGDRVTITCRASQSISSYLNWYQQKPGKAPKLLISAASSLQSGVPSRFSGSGSGTDFTLTISSLQPEDFATYYCQQSYNTLQVTFGGGTKVEIK
B9: COVIC-249 (antibody, V domains shown)
VH: QVQLVQPGGGVIQPGRSLRLSCTASGFTFSSYPMHWVRQAPGKGLEWVAVISYDGDNKYYADSVKGRFTISRDNSKNTLYLQMNSLKSDDTAMYYCARDYVVVILSDSFYYGMDVWGQGTTVTVSS
VL: QSALTQPRSVSGSPGQSVTISCTGTSSDVGGYNYVSWYQQYPGKAPKLMIYDVSKRPSGVPDRFSGSKSGNTASLTISGLQGEDEADYYCCSYAGSYTYVFGTGTKVTVL
B10: COVIC-166 (antibody, V domains shown)
VH: QVQLVESGGGVVQPGRSLRLSCAASGFTFSSYGMHWVRQAPGKGLEWVAVISYDGSDKYYADSVKGRFTISRDNSKNTLYLQMNSLRAEDTAVYYCAKTVAGYYYYYYGMDVWGQGTTVTVSS
VL: DIQMTQSPSSVSASVGDRVTVTCRASQDISSWLAWFQQKPGKAPKFLIYDASNLENGVPSRFSGSGSGTDFTLTISSLQPEDFATYYCQQAKSFPWTFGQGTKVEINR
B11: COVIC-143 (antibody, V domains shown)
VH: EVQLVESGGGVVQPGRSLRLSCAASGFTFSNYAMHWVRQAPGKGLEWVAVISYDGSNKYSADSVKGRFTISRDNSKNTLYLQMNSLRPEDTAVYYCARDGVGTMVRGVMSPLFDYWGQGTLVTVSS
VL: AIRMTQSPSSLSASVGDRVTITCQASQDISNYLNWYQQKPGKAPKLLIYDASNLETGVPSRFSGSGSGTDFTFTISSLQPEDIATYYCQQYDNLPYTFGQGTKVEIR
B12: COVIC-250 (antibody, V domains shown)
VH: QVQLQQSGPGLVKPSETLALTCTVSGGSTSSYYWSWIRQPPGKGLEWIGSIYYSGSTDYNPSLKSRVTISLDTSKTQFSLKLSSVTAADTAVYYCARVDTSGWYTGDVFDYWGQGTLVTVSS
VL: DIQMTQPPSSLSASVGDRVTITCRASQSLSSYLNWYQQKPGKAPKLLIYAVFSLQSGVPSRFSGSGSGTDFTLTISSLQPEDFATYYCQQSYSTPLTFGGGTKVEIK
B13: COVIC-184 (antibody, V domains shown)
VH: QITLKESGPTLVKPTQTLTLTCTFSGFSLSTSGVGVGWIRQPPGKALEWLALIYWDDDKRYSPSLKSRLTITKDTSKNQVVLTMTNMDPVDTATYYCAHHKIERIFDYWGQGTLVTVSS
VL: QSALAQPASVSGSPGQSITISCTGTSSDVGAYNYVSWYQQHPGKAPKLMIYDVSKRPSGVSNRFSGSKSGNTASLTISGLQAEDEADYYCSSYTTSSTVFGGGTKLTVL
B14: COVIC-128 (antibody)
chain 1: not shown
chain 2: QVQLQESGGGLVQAGGSLRLSCAASGRTFSEYAMGWFRQAPGKEREFVATISWSGGSTYYTDSVKGRFTISRDNAKNTVYLQMNSLKPDDTAVYYCAAAGLGTVVSEWDYDYDYWGQGTQVTVSSGGSGGSQVQLQESGGGLVQAGGSLRLSCVASGSIFSINAMDWYRQAPGKQRELVAGITSGGSTNYGDFVKGRFTISRDNAKNTVYLQMDSLKPEDTAVYYCAAEVGGWGPPRPDYWGHGTQVTVSSGGGGSGGGGSKRTVAAPSVFIFPPSDEQLKSGTASVVCLLNNFYPREAKVQWKVDNALQSGNSQESVTEQDSKDSTYSLSSTLTLSKADYEKHKVYACEVTHQGLSSPVTKSFNRGEC
B15: COVIC-310 (antibody)
chain 1: QVQLVQSGAEVKKPGSSVKVSCKASGGTFGISWVRQAPGQGLEWMGRIIPILGTANHAQKFQGRVTITADKSTGTVYMELSSLRSEDTAVYYCARDGDSGSYYETLGFDYWGQGTLVTVSSGGGGSGGGGSGGGGQVQLVESGGGVVQSGRSLRLSCAASGFTFSSYAMHWVRQAPGKGLEWVAVISHDGSNTYYEDSVKGRFTISRDNSKNTLHLQVNSLRVEDTAVYYCARAKGEVRYFDWAEQGGDYWGQGTLVTVSS
chain 2: QSALTQPPSASGSPGQSVTISCTGTSSDVGGYNYVSWYQQHPGKAPKLMIYEVNKRPSGVPDRFSGSKSGNTASLTVSGLQAEDEADYYCSSYAGSNNLVFGGGTKLTVLGGGGSGGGGSGGGGSYELTQPPSVSVSPGQTARITCSGDALPKKYAYWYQQKSGQAPVLVIYEDSKRPSGIPERFSGSSSGTMATLTISGAQVEDEADYYCYSTDNSGDHGVFGGGTKLTVL
B16: COVIC-331 (antibody, V domains shown)
VH: EVQLVESGGGLIQVGGSLRLSCAASGLTVTSNYMNWVRQGPGKGLEWVSLIYSGGTTYYADSVKGRFTISRDDSKNTLYLQMNSLRAEDTAVYYCARPIVGARSGMDVWGQGTAVTVSS
VL: DIQMTQSPSSLSASVGDRVTITCQASQDINKYLNWYQQKPGKAPKLLIYDASNLETGVPSRFSGSGSGTDFTFTISSLQPEDLATYYCHQFDNLPGTFGGGTKVEIK
B17: COVIC-360 (antibody, V domains shown)
VH: EVQLVESGGGLVQPGGSLRLSCKASGISVAPHAVTWVRQAPGKGLEWIGVIASNADTYYASWAKGRFTISRDNSKNTLYLQMNSLRAEDTAVYYCARHPGSAGYGYTYYYAMDPWGQGTLVTVSS
VL: DIQMTQSPSSLSASVGDRVTITCQASQKIHYAINWYQQKPGKAPKLLIYGTSYLGGGVPSRFSGSGSGTDFTLTISSLQPEDFATYYCQQGYIVPNSFGGGTKVEIK
B18: COVIC-122 (antibody)
chain: QVQLQESGGGLVQAGGSLRLSCAASGRTFSEYAMGWFRQAPGKEREFVATISWSGGSTYYTDSVKGRFTISRDNAKNTVYLQMNSLKPDDTAVYYCAAAGLGTVVSEWDYDYDYWGQGTQVTVSSGGSGGSQVQLQESGGGLVQAGGSLRLSCAASGRTFSEYAMGWFRQAPGKEREFVATISWSGGSTYYTDSVKGRFTISRDNAKNTVYLQMNSLKPDDTAVYYCAAAGLGTVVSEWDYDYDYWGQGTQVTVSSGGGGSGGGGSKKKPLDGEYFTLQIRGRERFEMFRELNEALELKDAQAGKEPGGGGGSGGGGSQVQLQESGGGLVQAGGSLRLSCAASGRTFSEYAMGWFRQAPGKEREFVATISWSGGSTYYTDSVKGRFTISRDNAKNTVYLQMNSLKPDDTAVYYCAAAGLGTVVSEWDYDYDYWGQGTQVTVSSGGSGGSQVQLQESGGGLVQAGGSLRLSCAASGRTFSEYAMGWFRQAPGKEREFVATISWSGGSTYYTDSVKGRFTISRDNAKNTVYLQMNSLKPDDTAVYYCAAAGLGTVVSEWDYDYDYWGQGTQVTVSS

The target of the test is SARS-CoV-2 spike RBD (Wuhan-Hu-1) (Severe acute respiratory syndrome …, UniProt P0DTC2). The test can be described thus: SPR. On the technique in general: SPR reads the build-up and loss of mass on a sensor chip optically.
In turn, B1 had a Kd of 0.326 nM. B2 came in with a dissociation constant Kd of 1.59 nM. Consider B3, for which the Kd worked out at 0.271 nM. Molecule B4 came in with a Kd of 9.47 nM. The result for B5 reads 0.0198 nM; that for B6, 70.2 nM; that for B7, 0.266 nM.

Consider B8, for which the Kd was determined as 6.1 nM.

B9 had an equilibrium dissociation constant (Kd) of 9.81 nM. Take B10: the Kd stood at 0.826 nM.

B11 yielded a Kd of 5.91 nM. B12 showed a Kd of 17.7 nM. The result for B13 reads 34.4 nM; that for B14, 119 nM. The same measure for B15: 1.85 nM. The same measure for B16: 0.0704 nM; for B17: 0.0132 nM; for B18: 203 nM.

What is called Kd is a measure of binding affinity in units of concentration. Read a high Kd as a looser complex.
